Results reported in the Human Domainome abundance scans (Beltran et al. 2025).
± gives the uncertainty stated by the source.

B1: Ankyrin-1, residues 1405 to 1484; numbered along this chain, P16157 (parent)
chain: MKMAVISEHLGLSWAELARELQFSVEDINRIRVENPNSLLEQSVALLNLWVIREGQNANMENLYTALQSIDRGEIVNMLE

Variants of: B1
Assay: abundance fitness (aPCA) (normalised: wild type 0, dead -1); higher = more abundant; growth selection in yeast, the domain comes from the species named
Details: Homo sapiens

Compared with I75R, Q56L is higher in abundance fitness: -0.915 ± 0.14 for the first, -0.19 ± 0.061 for the second.

Q56D and Q56S are within error of each other in abundance fitness: -0.139 ± 0.19 for the first, -0.097 ± 0.07 for the second.

A58W and A58H are within error of each other in abundance fitness: -0.062 ± 0.077 for the first, -0.241 ± 0.24 for the second.

First: A58C
Second: E41W
The abundance fitness of the first is higher: 0.031 ± 0.14 for the first, -0.563 ± 0.1 for the second.

First: E26M
Second: E26Y
The abundance fitness of the first is lower: -0.189 ± 0.1 for the first, 0.064 ± 0.15 for the second.

L79C and L79S are within error of each other in abundance fitness: 0.045 ± 0.13 for the first, 0.014 ± 0.052 for the second.

Going from D27K to D27S, the abundance fitness rises from -0.508 ± 0.15 to -0.127 ± 0.058.

Compared with N29Y, N29S is higher in abundance fitness: -0.484 ± 0.16 for the first, -0.156 ± 0.062 for the second.

First: E54G
Second: E54K
The abundance fitness of the first is higher: -0.115 ± 0.049 for the first, -0.29 ± 0.12 for the second.

First: E54P
Second: E54L
The abundance fitness of the first is lower: -0.977 ± 0.25 for the first, -0.567 ± 0.076 for the second.

E54W and E54F are within error of each other in abundance fitness: -0.62 ± 0.11 for the first, -0.606 ± 0.15 for the second.

V25T and V25W are within error of each other in abundance fitness: -0.159 ± 0.079 for the first, -0.265 ± 0.069 for the second.

N77A and N77T are within error of each other in abundance fitness: 0.084 ± 0.061 for the first, 0.041 ± 0.082 for the second.

N77H and N77C are within error of each other in abundance fitness: -0.175 ± 0.22 for the first, -0.479 ± 0.18 for the second.

N77D and I70T are within error of each other in abundance fitness: -0.347 ± 0.19 for the first, -0.651 ± 0.14 for the second.

I31M and S69P are within error of each other in abundance fitness: -0.524 ± 0.12 for the first, -0.467 ± 0.13 for the second.

Going from S69D to I28L, the abundance fitness falls from -0.06 ± 0.087 to -0.529 ± 0.083.

Compared with I28M, I28F is lower in abundance fitness: -0.341 ± 0.13 for the first, -0.738 ± 0.22 for the second.

P36W and P36M are within error of each other in abundance fitness: -0.219 ± 0.095 for the first, -0.064 ± 0.34 for the second.

Going from P36E to G55W, the abundance fitness falls from -0.066 ± 0.12 to -1.01 ± 0.42.

Compared with G55L, N62A is higher in abundance fitness: -0.871 ± 0.2 for the first, -0.045 ± 0.079 for the second.

N62L and N62E are within error of each other in abundance fitness: -0.037 ± 0.09 for the first, -0.197 ± 0.17 for the second.

Compared with N62T, D71C is lower in abundance fitness: 0.211 ± 0.1 for the first, -0.144 ± 0.094 for the second.

Going from D71E to D71F, the abundance fitness falls from 0.075 ± 0.075 to -0.627 ± 0.2.

Going from D71K to W50D, the abundance fitness falls from -0.058 ± 0.079 to -0.653 ± 0.29.

W14C and W14H are within error of each other in abundance fitness: -1.05 ± 0.28 for the first, -0.873 ± 0.29 for the second.

First: E80L
Second: E80P
The abundance fitness of the first is lower: -0.329 ± 0.12 for the first, 0.049 ± 0.21 for the second.

First: E80V
Second: E80G
The abundance fitness of the first is lower: -0.154 ± 0.13 for the first, 0.126 ± 0.08 for the second.

First: R72G
Second: S24V
The abundance fitness of the first is higher: -0.499 ± 0.065 for the first, -0.722 ± 0.097 for the second.

S24A and S24Q are within error of each other in abundance fitness: -0.213 ± 0.056 for the first, -0.195 ± 0.088 for the second.

First: L40R
Second: L40Y
The abundance fitness of the first is higher: 0.089 ± 0.059 for the first, -0.189 ± 0.11 for the second.

G11M and G11S are within error of each other in abundance fitness: -0.447 ± 0.13 for the first, -0.616 ± 0.13 for the second.

First: K2D
Second: K2F
The abundance fitness of the first is lower: -0.542 ± 0.14 for the first, -0.22 ± 0.11 for the second.

Going from K2N to K2L, the abundance fitness falls from -0.081 ± 0.095 to -0.258 ± 0.037.

L39A and L39M are within error of each other in abundance fitness: -0.103 ± 0.069 for the first, -0.075 ± 0.15 for the second.

Compared with L21W, R30D is higher in abundance fitness: -0.666 ± 0.13 for the first, -0.122 ± 0.11 for the second.

First: L47V
Second: L47A
The abundance fitness of the first is higher: -0.308 ± 0.066 for the first, -0.905 ± 0.15 for the second.

L47H and F23Q are within error of each other in abundance fitness: -0.503 ± 0.33 for the first, -0.883 ± 0.24 for the second.

F23Y and A4M are within error of each other in abundance fitness: -0.478 ± 0.12 for the first, -0.434 ± 0.19 for the second.

First: A4H
Second: L10I
The abundance fitness of the first is lower: -0.622 ± 0.28 for the first, -0.172 ± 0.15 for the second.

L10N and L10Q are within error of each other in abundance fitness: -0.69 ± 0.28 for the first, -0.898 ± 0.29 for the second.

L10F and N35Y are within error of each other in abundance fitness: -0.706 ± 0.27 for the first, -0.42 ± 0.3 for the second.

N59K and R32F are within error of each other in abundance fitness: -0.02 ± 0.19 for the first, 0.069 ± 0.098 for the second.

Going from R32Y to R32E, the abundance fitness rises from -0.43 ± 0.15 to 0.031 ± 0.05.

Going from N48H to N48F, the abundance fitness falls from -0.042 ± 0.086 to -0.896 ± 0.24.

Compared with N37T, G73D is lower in abundance fitness: -0.111 ± 0.18 for the first, -0.491 ± 0.11 for the second.

Going from G73L to G73P, the abundance fitness rises from -0.399 ± 0.036 to -0.205 ± 0.058.

First: Q42N
Second: L12K
The abundance fitness of the first is lower: -0.882 ± 0.33 for the first, -0.133 ± 0.2 for the second.

L12E and Q68S are within error of each other in abundance fitness: -0.499 ± 0.29 for the first, -0.199 ± 0.062 for the second.

Q68W and E34G are within error of each other in abundance fitness: -0.146 ± 0.071 for the first, -0.166 ± 0.074 for the second.

E34K and E34S are within error of each other in abundance fitness: -0.522 ± 0.41 for the first, -0.144 ± 0.12 for the second.

Going from N57D to L17D, the abundance fitness falls from -0.072 ± 0.15 to -1.01 ± 0.27.

L17H and L17A are within error of each other in abundance fitness: -0.671 ± 0.4 for the first, -0.607 ± 0.12 for the second.

Compared with V5M, V5R is lower in abundance fitness: -0.092 ± 0.11 for the first, -0.521 ± 0.062 for the second.

V5C and S7T are within error of each other in abundance fitness: -0.18 ± 0.087 for the first, -0.226 ± 0.1 for the second.

L67S and L67E are within error of each other in abundance fitness: -0.829 ± 0.14 for the first, -0.792 ± 0.21 for the second.

L67W and L67Q are within error of each other in abundance fitness: -0.999 ± 0.19 for the first, -0.809 ± 0.26 for the second.

S43H and S43K are within error of each other in abundance fitness: -0.56 ± 0.14 for the first, -0.598 ± 0.15 for the second.

A45V and A45F are within error of each other in abundance fitness: -0.513 ± 0.065 for the first, -0.65 ± 0.14 for the second.

S38P and S38Y are within error of each other in abundance fitness: -0.822 ± 0.23 for the first, -0.749 ± 0.25 for the second.

Compared with Q22M, V33K is lower in abundance fitness: -0.008 ± 0.048 for the first, -0.215 ± 0.14 for the second.

V33N and V33D are within error of each other in abundance fitness: -0.103 ± 0.28 for the first, -0.031 ± 0.14 for the second.

V33Q and V33L are within error of each other in abundance fitness: 0.033 ± 0.09 for the first, -0.001 ± 0.061 for the second.

First: V33A
Second: T65G
The abundance fitness of the first is higher: 0.096 ± 0.057 for the first, -0.045 ± 0.043 for the second.

T65H and E74H are within error of each other in abundance fitness: -0.05 ± 0.1 for the first, -0.082 ± 0.18 for the second.

E74N and L46F are within error of each other in abundance fitness: -0.478 ± 0.17 for the first, -0.204 ± 0.14 for the second.

First: L46S
Second: S13V
The abundance fitness of the first is lower: -0.832 ± 0.14 for the first, -0.5 ± 0.049 for the second.

S13D and R19F are within error of each other in abundance fitness: 0.155 ± 0.089 for the first, 0.067 ± 0.057 for the second.

R19K and E16H are within error of each other in abundance fitness: -0.048 ± 0.17 for the first, -0.104 ± 0.12 for the second.

Compared with E16P, E16D is higher in abundance fitness: -0.091 ± 0.064 for the first, 0.068 ± 0.089 for the second.

First: E16G
Second: E16T
The abundance fitness of the first is higher: 0.018 ± 0.047 for the first, -0.222 ± 0.095 for the second.

V44L and V44Q are within error of each other in abundance fitness: 0.014 ± 0.051 for the first, 0.18 ± 0.12 for the second.

Compared with V44H, H9V is lower in abundance fitness: 0.275 ± 0.078 for the first, -0.712 ± 0.13 for the second.

Compared with H9L, E8T is higher in abundance fitness: -0.438 ± 0.1 for the first, -0.162 ± 0.08 for the second.

Going from E8N to M60G, the abundance fitness falls from -0.06 ± 0.16 to -0.813 ± 0.2.

First: M60V
Second: M60E
The abundance fitness of the first is higher: 0.117 ± 0.12 for the first, -0.42 ± 0.18 for the second.

Compared with L49A, L49Q is higher in abundance fitness: -0.138 ± 0.057 for the first, 0.014 ± 0.075 for the second.

L49G and A15K are within error of each other in abundance fitness: -0.11 ± 0.046 for the first, -0.251 ± 0.22 for the second.

Going from A15G to V76Y, the abundance fitness falls from -0.108 ± 0.037 to -0.264 ± 0.11.

V76M and M3A are within error of each other in abundance fitness: -0.307 ± 0.097 for the first, -0.435 ± 0.08 for the second.

Compared with M3V, M3N is lower in abundance fitness: -0.024 ± 0.053 for the first, -0.748 ± 0.47 for the second.

Going from A66F to M78D, the abundance fitness rises from -1.05 ± 0.48 to -0.013 ± 0.096.

Y64M and Y64I are within error of each other in abundance fitness: -0.185 ± 0.11 for the first, -0.302 ± 0.13 for the second.

Y64L gave an abundance fitness of -0.172 ± 0.067.
